Among the data in paper PMC12259648 (Frontiers in Immunology, 2025) are Kd, koff and kon values, retold here.

In the experiment the target is T1, Phl p 5.0101 (timothy grass).
T1 construct: Phl p 5.0101, major group 5 pollen allergen of timothy grass; The SPR methods say only 'Phl p 5 antigen'; also called major timothy grass pollen allergen Phl p 5; group 5 allergen; source: bought: Biomay, Vienna, Austria
T1 chain: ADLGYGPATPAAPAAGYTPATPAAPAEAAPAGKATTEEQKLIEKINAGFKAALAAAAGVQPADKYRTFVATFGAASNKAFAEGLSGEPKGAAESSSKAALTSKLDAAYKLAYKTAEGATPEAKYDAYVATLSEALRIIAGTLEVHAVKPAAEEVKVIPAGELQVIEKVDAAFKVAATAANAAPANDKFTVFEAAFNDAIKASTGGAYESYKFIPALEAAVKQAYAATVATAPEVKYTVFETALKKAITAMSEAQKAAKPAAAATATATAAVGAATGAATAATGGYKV
Nature of the experiment: SPR; Biacore 1K+; purified IgG captured (about 100 RU) on anti-human IgG (Fc) on a CM5 chip; Phl p 5 injected at 1.875-60 nM, 25 uL/min, 120 s, 1360 s dissociation; PBS with 0.02% Tween 20; 1:1 Langmuir model. Particulars: both partners purified. For orientation: In SPR one partner is held on a chip, and binding of the other changes the refractive index at the surface.

B1: 212579 E38HS, G62HS (antibody, V domains shown)
VH: EVQLVESGGGLVQPGGSLRLSCAASGFTFSSYSMTWVRQAPGKGLEWISYISSSSSTIYYADSVKGRFTISRDNAKNSLYLQMNSLRAEDTAVYYCARDLRWGVMDNYYYHGMDVWGQGTTVTVSS
VL: EIVLTQSPGTLSLSPGERATLSCRASQSISSSYLTWYQQKPGQAPRLLIYGASSRATGIPDRFSGSGSGTDFTLTISRLEPEDFAVYYCQQYVSSLITFGQGTRLEIK
notes: numbers count on: IMGT numbering; as the VL of m2; IgG1, kappa; also called E38HS G62HS substituted antibody; source: Expi293F, transfected, purified (Protein A magnetic beads)
What is called Kd is the constant that tells how readily two partners part at equilibrium. Higher therefore signals weaker binding. As usually defined, the koff is the rate constant with which the complex falls apart. High values mean a short-lived complex, low ones a long-lived complex. A word on the kon: it is a measure of how fast the partners come together. High values mean faster complex formation, low ones slower complex formation. Consider B1, for which the Kd came to 19.6 nM, the koff turned out to be 0.00262 s⁻¹ and the kon is 130000 M⁻¹ s⁻¹.

B2: inferred unmutated common ancestor (UCA) of antibody 212579 (antibody, V domains shown)
VH: EVQLVESGGGLVQPGGSLRLSCAASGFTFSSYEMNWVRQAPGKGLEWVSYISSSGSTIYYADSVKGRFTISRDNAKNSLYLQMNSLRAEDTAVYYCARDLRWGVMDNYYYYGMDVWGQGTTVTVSS
VL: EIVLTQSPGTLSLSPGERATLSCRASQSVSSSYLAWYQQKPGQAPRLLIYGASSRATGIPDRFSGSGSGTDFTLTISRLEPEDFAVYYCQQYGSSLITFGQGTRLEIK
notes: equals the inferred UCA heavy chain variable domain (GenBank PV255645, PV255646 for the two chains); numbers count on: IMGT numbering; equals the inferred UCA light chain variable domain (GenBank PV255645, PV255646 for the two chains); IgG1, kappa; also called inferred UCA; source: Expi293F, transfected, purified (Protein A magnetic beads)
Consider B2, for which binding was characterised by a dissociation constant (Kd) of 8.5 nM, the off-rate constant (koff) turned out to be 0.00051 s⁻¹ and the on-rate constant (kon) came out at 60000 M⁻¹ s⁻¹.
